The values below come from US20180155451A1 (published 2018).

Assay [1] concerns the target T1, FcγRIIb extracellular domain with C-terminal His tag (human, UniProt P31994 43-217).
T1 construct: extracellular domain; soluble receptor expressed in FreeStyle293 cells, used as analyte in Biacore; also called FcgRIIb; 2b; not shown: His tag attached to the C terminus
T1 sequence (looked up): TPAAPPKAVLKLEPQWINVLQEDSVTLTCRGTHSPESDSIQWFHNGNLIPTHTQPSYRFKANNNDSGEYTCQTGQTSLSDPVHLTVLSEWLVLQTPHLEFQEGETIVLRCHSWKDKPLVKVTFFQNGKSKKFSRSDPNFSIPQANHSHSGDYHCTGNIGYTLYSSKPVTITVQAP
Description: SPR (Biacore), antibody captured on antigen peptide chip, FcγR as analyte; relative binding. For orientation: In SPR one partner is held on a chip, and binding of the other changes the refractive index at the surface.

For assay [2], the target named is T2, FcγRIa extracellular domain with C-terminal His tag (human, UniProt P12314 16-292).
T2 construct: extracellular domain; soluble receptor expressed in FreeStyle293 cells, used as analyte in Biacore; also called FcgRI; 1a; not shown: His tag attached to the C terminus
The assay is described as above.

T2 sequence (P12314 16-292): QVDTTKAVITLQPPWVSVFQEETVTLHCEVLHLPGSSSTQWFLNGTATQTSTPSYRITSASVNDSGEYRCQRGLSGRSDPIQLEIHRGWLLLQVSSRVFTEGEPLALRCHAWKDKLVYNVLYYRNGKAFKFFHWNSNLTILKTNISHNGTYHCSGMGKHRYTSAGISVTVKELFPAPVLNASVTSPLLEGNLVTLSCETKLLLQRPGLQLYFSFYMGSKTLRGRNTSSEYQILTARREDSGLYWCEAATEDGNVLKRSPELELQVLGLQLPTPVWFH

B1: GpH7-A5/GpH7-B3 variant A330_19Q/GpL16-k0 (antibody, human IgG1, kappa)
heavy 1: not shown
heavy 2: not shown
light: DIVMTQSPLSLPVTPGEPASISCQASESLVHSNRNTYLHWYLQKPGQSPQLLIYKVSNRFSGVPDRFSGSGSGTDFTLKISRVEAEDVGVYYCSQNTHVPPTFGQGTKVEIERTVAAPSVFIFPPSDEQLKSGTASVVCLLNNFYPREAKVQWKVDNALQSGNSQESVTEQDSKDSTYSLSSTLTLSKADYEKHKVYACEVTHQGLSSPVTKSFNRGEC
notes: heterodimerized anti-glypican-3 IgG1; alteration in the GpH7-B3 chain only; also called He Ab
As to B1, the He/Con_2b in assay [1] was 90.8 % of control GpH7-A5/GpH7-B3/GpL16-k0 (=100). In assay [2], the He/Con_1a was 105 % of control GpH7-A5/GpH7-B3/GpL16-k0 (=100).

B2: GpH7-A5/GpH7-B3 variant A330_03V/GpL16-k0 (antibody, human IgG1, kappa)
heavy 1: not shown
heavy 2: not shown
light: DIVMTQSPLSLPVTPGEPASISCQASESLVHSNRNTYLHWYLQKPGQSPQLLIYKVSNRFSGVPDRFSGSGSGTDFTLKISRVEAEDVGVYYCSQNTHVPPTFGQGTKVEIERTVAAPSVFIFPPSDEQLKSGTASVVCLLNNFYPREAKVQWKVDNALQSGNSQESVTEQDSKDSTYSLSSTLTLSKADYEKHKVYACEVTHQGLSSPVTKSFNRGEC
notes: as for B1
On to B2, for which the He/Con_2b in assay [1] is 52.4 % of control GpH7-A5/GpH7-B3/GpL16-k0 (=100). For the same molecule, in assay [2], the He/Con_1a is 106 % of control GpH7-A5/GpH7-B3/GpL16-k0 (=100).

B3: GpH7-A5/GpH7-B3 variant A330_10E/GpL16-k0 (antibody, human IgG1, kappa)
heavy 1: not shown
heavy 2: not shown
light: DIVMTQSPLSLPVTPGEPASISCQASESLVHSNRNTYLHWYLQKPGQSPQLLIYKVSNRFSGVPDRFSGSGSGTDFTLKISRVEAEDVGVYYCSQNTHVPPTFGQGTKVEIERTVAAPSVFIFPPSDEQLKSGTASVVCLLNNFYPREAKVQWKVDNALQSGNSQESVTEQDSKDSTYSLSSTLTLSKADYEKHKVYACEVTHQGLSSPVTKSFNRGEC
notes: as for B1
Regarding B3, the He/Con_2b in assay [1] is 70.1 % of control GpH7-A5/GpH7-B3/GpL16-k0 (=100). In addition, the He/Con_1a in assay [2] was 107 % of control GpH7-A5/GpH7-B3/GpL16-k0 (=100).

B4: GpH7-A5/GpH7-B3 variant A330_09D/GpL16-k0 (antibody, human IgG1, kappa)
heavy 1: not shown
heavy 2: not shown
light: DIVMTQSPLSLPVTPGEPASISCQASESLVHSNRNTYLHWYLQKPGQSPQLLIYKVSNRFSGVPDRFSGSGSGTDFTLKISRVEAEDVGVYYCSQNTHVPPTFGQGTKVEIERTVAAPSVFIFPPSDEQLKSGTASVVCLLNNFYPREAKVQWKVDNALQSGNSQESVTEQDSKDSTYSLSSTLTLSKADYEKHKVYACEVTHQGLSSPVTKSFNRGEC
notes: as for B1
For the molecule B4, the He/Con_2b in assay [1] was 55.6 % of control GpH7-A5/GpH7-B3/GpL16-k0 (=100). For the same molecule, the He/Con_1a in assay [2] was 109 % of control GpH7-A5/GpH7-B3/GpL16-k0 (=100).

B5: GpH7-A5/GpH7-B3 variant A330_11K/GpL16-k0 (antibody, human IgG1, kappa)
heavy 1: not shown
heavy 2: not shown
light: DIVMTQSPLSLPVTPGEPASISCQASESLVHSNRNTYLHWYLQKPGQSPQLLIYKVSNRFSGVPDRFSGSGSGTDFTLKISRVEAEDVGVYYCSQNTHVPPTFGQGTKVEIERTVAAPSVFIFPPSDEQLKSGTASVVCLLNNFYPREAKVQWKVDNALQSGNSQESVTEQDSKDSTYSLSSTLTLSKADYEKHKVYACEVTHQGLSSPVTKSFNRGEC
notes: as for B1
As to B5, the He/Con_2b in assay [1] is 95 % of control GpH7-A5/GpH7-B3/GpL16-k0 (=100). The He/Con_1a in assay [2] is 103 % of control GpH7-A5/GpH7-B3/GpL16-k0 (=100).

B6: GpH7-A5/GpH7-B3 variant A330_18N/GpL16-k0 (antibody, human IgG1, kappa)
heavy 1: not shown
heavy 2: not shown
light: DIVMTQSPLSLPVTPGEPASISCQASESLVHSNRNTYLHWYLQKPGQSPQLLIYKVSNRFSGVPDRFSGSGSGTDFTLKISRVEAEDVGVYYCSQNTHVPPTFGQGTKVEIERTVAAPSVFIFPPSDEQLKSGTASVVCLLNNFYPREAKVQWKVDNALQSGNSQESVTEQDSKDSTYSLSSTLTLSKADYEKHKVYACEVTHQGLSSPVTKSFNRGEC
notes: as for B1
B6: the He/Con_2b in assay [1] is 63.7 % of control GpH7-A5/GpH7-B3/GpL16-k0 (=100). Further, the He/Con_1a in assay [2] is 106 % of control GpH7-A5/GpH7-B3/GpL16-k0 (=100).

B7: GpH7-A5/GpH7-B3 variant A330_04F/GpL16-k0 (antibody, human IgG1, kappa)
heavy 1: not shown
heavy 2: not shown
light: DIVMTQSPLSLPVTPGEPASISCQASESLVHSNRNTYLHWYLQKPGQSPQLLIYKVSNRFSGVPDRFSGSGSGTDFTLKISRVEAEDVGVYYCSQNTHVPPTFGQGTKVEIERTVAAPSVFIFPPSDEQLKSGTASVVCLLNNFYPREAKVQWKVDNALQSGNSQESVTEQDSKDSTYSLSSTLTLSKADYEKHKVYACEVTHQGLSSPVTKSFNRGEC
notes: as for B1
As for B7, the He/Con_2b in assay [1] was 92.8 % of control GpH7-A5/GpH7-B3/GpL16-k0 (=100). The He/Con_1a in assay [2] was 106 % of control GpH7-A5/GpH7-B3/GpL16-k0 (=100).

B8: GpH7-A5/GpH7-B3 variant A330_07I/GpL16-k0 (antibody, human IgG1, kappa)
heavy 1: not shown
heavy 2: not shown
light: DIVMTQSPLSLPVTPGEPASISCQASESLVHSNRNTYLHWYLQKPGQSPQLLIYKVSNRFSGVPDRFSGSGSGTDFTLKISRVEAEDVGVYYCSQNTHVPPTFGQGTKVEIERTVAAPSVFIFPPSDEQLKSGTASVVCLLNNFYPREAKVQWKVDNALQSGNSQESVTEQDSKDSTYSLSSTLTLSKADYEKHKVYACEVTHQGLSSPVTKSFNRGEC
notes: as for B1
In the case of B8, the He/Con_2b in assay [1] was 67.1 % of control GpH7-A5/GpH7-B3/GpL16-k0 (=100). Besides, the He/Con_1a in assay [2] is 105 % of control GpH7-A5/GpH7-B3/GpL16-k0 (=100).

B9: GpH7-A5/GpH7-B3 variant A330_20W/GpL16-k0 (antibody, human IgG1, kappa)
heavy 1: not shown
heavy 2: not shown
light: DIVMTQSPLSLPVTPGEPASISCQASESLVHSNRNTYLHWYLQKPGQSPQLLIYKVSNRFSGVPDRFSGSGSGTDFTLKISRVEAEDVGVYYCSQNTHVPPTFGQGTKVEIERTVAAPSVFIFPPSDEQLKSGTASVVCLLNNFYPREAKVQWKVDNALQSGNSQESVTEQDSKDSTYSLSSTLTLSKADYEKHKVYACEVTHQGLSSPVTKSFNRGEC
notes: as for B1
B9: in assay [1], the He/Con_2b was 76.1 % of control GpH7-A5/GpH7-B3/GpL16-k0 (=100). Further, the He/Con_1a in assay [2] is 108 % of control GpH7-A5/GpH7-B3/GpL16-k0 (=100).

B10: GpH7-A5/GpH7-B3 variant D270_04F/GpL16-k0 (antibody, human IgG1, kappa)
heavy 1: not shown
heavy 2: not shown
light: DIVMTQSPLSLPVTPGEPASISCQASESLVHSNRNTYLHWYLQKPGQSPQLLIYKVSNRFSGVPDRFSGSGSGTDFTLKISRVEAEDVGVYYCSQNTHVPPTFGQGTKVEIERTVAAPSVFIFPPSDEQLKSGTASVVCLLNNFYPREAKVQWKVDNALQSGNSQESVTEQDSKDSTYSLSSTLTLSKADYEKHKVYACEVTHQGLSSPVTKSFNRGEC
notes: as for B1
Consider B10, for which the He/Con_2b in assay [1] is 53.1 % of control GpH7-A5/GpH7-B3/GpL16-k0 (=100). The He/Con_1a in assay [2] is 78.1 % of control GpH7-A5/GpH7-B3/GpL16-k0 (=100).
